Experimental data taken from the RNAGym collection of RNA variant scans (doi:10.1073/pnas.2313332121).

B1: TPR t1 (parent)
chain: GACCAAUCUGCCCUCAGAGCUCGAGAACAUCUUCGGAUGCAGAGGAGGCAGGCUUCGGUGGCGCGAUAGCGCCAACGUCCUCAACCUCCAAUGCAUCCCACCACAUGAUGAUGCCUGAAGAGCCUUGGUUUUUUG

Variants of: B1
Test: polymerase ribozyme fitness, log enrichment relative to wild type (log ratio); higher = more active; in vitro selection for triplet polymerase activity
Procedure, shortened: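 To select mutant libraries of each subunit of a heterodimeric triplet polymerase ribozyme, built by PCR and transcribed, each was annealed with a biotinylated primer, partner subunit and triplets, then incubated frozen at −7 °C. Extended constructs were gel-excised, captured on streptavidin beads and amplified by RT-PCR, in one round carried out in triplicate. Illumina sequencing of input and output libraries kept genotypes with ≥10 input reads and ≥1 read per output. Fitness is the base-2 logarithm of genotype enrichment relative to wild-type enrichment, from inverse-variance-weighted replicate averages.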

Going from G47U U54C to A46U C62U, the “polymerase ribozyme fitness (log ratio)” value rises from -3.33 to -1.12.

First: A46U C62G
Second: G48A C85U A105U
The “polymerase ribozyme fitness (log ratio)” value of the first is lower: -3.18 for the first, -2.08 for the second.

First: G48A C85G C89A U96C
Second: A46U A111G
The “polymerase ribozyme fitness (log ratio)” value of the first is lower: -2.26 for the first, -1.48 for the second.

Compared with A46G C97U, G47U C104A U129A is lower in “polymerase ribozyme fitness (log ratio)” value: -1.05 for the first, -5.96 for the second.

First: G47C C102U G110U U133A
Second: G47A G61A A84C
The “polymerase ribozyme fitness (log ratio)” value of the first is lower: -5.04 for the first, -1.29 for the second.

First: G48A A75G G120A
Second: A46G C101A
The “polymerase ribozyme fitness (log ratio)” value of the first is higher: 0.0402 for the first, -0.288 for the second.

First: G48A C85G U106C
Second: A46U G71U G110A
The “polymerase ribozyme fitness (log ratio)” value of the first is higher: -1.25 for the first, -2.84 for the second.

Going from A46G U112A to G47C C62G, the “polymerase ribozyme fitness (log ratio)” value falls from 1.3 to -4.1.

Compared with A46U G57U C94A, G48C C49U U106G is lower in “polymerase ribozyme fitness (log ratio)” value: -2.21 for the first, -2.77 for the second.

Compared with A46G C49U, A46G C49A is higher in “polymerase ribozyme fitness (log ratio)” value: -0.575 for the first, 0.0417 for the second.

Going from G47C C49A G63U U78C C123G C124U to G48C C56U C85U U126G, the “polymerase ribozyme fitness (log ratio)” value rises from -4.24 to -2.57.

Compared with A46C G57C, A46C G57U is lower in “polymerase ribozyme fitness (log ratio)” value: -0.329 for the first, -0.681 for the second.

Going from G48A C79A U126C to G47A U78A, the “polymerase ribozyme fitness (log ratio)” value rises from -2.73 to -1.09.

Compared with A46U C56G G120C, A46G C56A A91U is lower in “polymerase ribozyme fitness (log ratio)” value: -0.234 for the first, -2.49 for the second.

First: A46G C123U
Second: A46C C104A A118U C123G
The “polymerase ribozyme fitness (log ratio)” value of the first is higher: 0.893 for the first, -1.15 for the second.

First: A46U C73U C123G G127A
Second: G47U C53G C62A
The “polymerase ribozyme fitness (log ratio)” value of the first is higher: -1.5 for the first, -2.11 for the second.

Going from G47A G61A to G48C C72U A90G U132A, the “polymerase ribozyme fitness (log ratio)” value rises from -2.4 to -0.935.

Going from G47A G127C to A46C G47A A50G U129A, the “polymerase ribozyme fitness (log ratio)” value falls from -2.06 to -3.12.

Compared with G47C A100U, A46U U106A C124G U129G is higher in “polymerase ribozyme fitness (log ratio)” value: -2.4 for the first, -0.0518 for the second.

Compared with A46G A95G, G48A C114A is lower in “polymerase ribozyme fitness (log ratio)” value: -0.108 for the first, -2.8 for the second.

Going from A46C U96G C104U U131C to G45U G61U G63C A91C A95G G110C, the “polymerase ribozyme fitness (log ratio)” value falls from -1.75 to -4.25.

Going from A46U G52U A66G C104U G110A to G47C G58A A121G G135U, the “polymerase ribozyme fitness (log ratio)” value rises from -5.89 to 0.038.

Going from G47C A91C G113C to G47A C56G, the “polymerase ribozyme fitness (log ratio)” value rises from -2.97 to -1.29.

First: G47A C56U
Second: A46U G63A
The “polymerase ribozyme fitness (log ratio)” value of the first is higher: 0.000278 for the first, -1.91 for the second.

Compared with G47C C56A, G47C C62G A118G is lower in “polymerase ribozyme fitness (log ratio)” value: -2.47 for the first, -3.74 for the second.

Going from G48A G63A U133G to G47C C49U, the “polymerase ribozyme fitness (log ratio)” value falls from -1.13 to -2.12.

Going from G47U A68G C104U to G47A G69U C98U C99U, the “polymerase ribozyme fitness (log ratio)” value rises from -4.55 to -2.9.

Compared with G47C C70U G93A C124A G127U G135U, A46G C97U U130G is higher in “polymerase ribozyme fitness (log ratio)” value: -3.66 for the first, -2.03 for the second.

Going from G47U A118G U130G to G45U G117C, the “polymerase ribozyme fitness (log ratio)” value falls from -3.01 to -4.15.

Compared with G47A A68G, G47U G128U is higher in “polymerase ribozyme fitness (log ratio)” value: -3.62 for the first, -2.73 for the second.

Compared with A46U G71C C73U, G47C A84C is higher in “polymerase ribozyme fitness (log ratio)” value: -3.63 for the first, -0.862 for the second.

Compared with A46C U87A G93C C115A U116C A119C, A46U C49G C56U C76U U87A is higher in “polymerase ribozyme fitness (log ratio)” value: -3.74 for the first, -1.97 for the second.

First: G48A C53U C80U C124U
Second: G48A G135U
The “polymerase ribozyme fitness (log ratio)” value of the first is higher: 0.0289 for the first, -1.08 for the second.

Going from A46U G120U to G47C C102A G120U, the “polymerase ribozyme fitness (log ratio)” value falls from -0.451 to -3.97.

Compared with G47A G117C, A46U U130G is higher in “polymerase ribozyme fitness (log ratio)” value: -4.01 for the first, -1.6 for the second.

Going from G48C C62U U87G G110C U116A to G47U C56U C72U U116C, the “polymerase ribozyme fitness (log ratio)” value rises from -6.41 to -3.11.

Going from G47C C102U U112C to A46U C56G G61U A105U C123U, the “polymerase ribozyme fitness (log ratio)” value falls from -1.55 to -5.93.

First: G47U C53G A105G
Second: G48A G63A
The “polymerase ribozyme fitness (log ratio)” value of the first is lower: -4.47 for the first, -1.14 for the second.

Going from G47C C53U to A46C C73A, the “polymerase ribozyme fitness (log ratio)” value falls from -0.348 to -1.64.

Compared with G47U A91C G113A U130A, G47U G61C is higher in “polymerase ribozyme fitness (log ratio)” value: -3.79 for the first, -2.36 for the second.

Compared with G47U G61U, G47A C72U A121U is higher in “polymerase ribozyme fitness (log ratio)” value: -2.36 for the first, 1.16 for the second.

With G47C C53U C70A C124A the “polymerase ribozyme fitness (log ratio)” value was -1.6.
